Measured values taken from paper PMC9263355.

Assays:
[1] = target: recombinant human galectin-9N (human); test: fluorescence polarisation; fluorescence anisotropy in solution, by inhibition: fixed galectin (0.2-2.5 µM) with 0.02 µM of its fluorescent probe, in the presence of 0.07-[…] (rh)4-1BB Fc or (rh)IgG1 Fc; average Kd from the points with ≥ 15% inhibition
[2] = target: recombinant human galectin-8N (human); test: as above
[3] = target: recombinant human galectin-9C (human); test: as above
[4] = target: 4-1BB on CD3/CD28-activated human CD4 T cells (human (endogenous in CD4 T cells)) (UniProt Q07011)
Chain of 4-1BB on CD3/CD28-activated human CD4 T cells (human (endogenous in CD4 T cells)) (Q07011 24-255): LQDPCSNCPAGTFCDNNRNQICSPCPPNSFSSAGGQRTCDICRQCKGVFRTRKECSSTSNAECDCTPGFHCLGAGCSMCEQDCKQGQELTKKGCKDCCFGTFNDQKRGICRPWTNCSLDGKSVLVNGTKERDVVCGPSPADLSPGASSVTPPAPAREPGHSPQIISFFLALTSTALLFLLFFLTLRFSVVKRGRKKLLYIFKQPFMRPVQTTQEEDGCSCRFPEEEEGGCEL

Chain of recombinant human (rh)4-1BB Fc chimera protein (Q07011 24-186, change not shown): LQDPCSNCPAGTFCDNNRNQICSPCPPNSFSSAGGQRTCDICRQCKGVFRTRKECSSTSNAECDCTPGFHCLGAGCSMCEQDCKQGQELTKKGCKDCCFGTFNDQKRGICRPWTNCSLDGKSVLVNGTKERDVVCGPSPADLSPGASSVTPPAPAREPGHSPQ
Chain of Gal-3 in normal human plasma (P17931 whole entry): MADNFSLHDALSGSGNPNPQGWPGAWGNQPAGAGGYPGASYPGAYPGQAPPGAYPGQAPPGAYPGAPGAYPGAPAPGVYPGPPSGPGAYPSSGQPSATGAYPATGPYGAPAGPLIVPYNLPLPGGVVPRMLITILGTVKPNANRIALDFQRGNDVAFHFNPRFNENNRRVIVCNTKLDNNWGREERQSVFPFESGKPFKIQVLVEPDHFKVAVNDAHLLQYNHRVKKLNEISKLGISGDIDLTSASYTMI

Kd [1] [µM]	Kd [2] [µM]	Kd [3] [µM]	fold decrease in fraction of 4-1BB+CD4+ T cells that produced TNFα upon 4-1BBL stimulation, after pre-incubation of activated CD4 T-cells with plasma [4] [fold]	Substance
1.39	3.59	2.24		recombinant human (rh)4-1BB Fc chimera protein (from UniProt Q07011 24-186) (Fc fusion)
			3.8	Gal-3 in normal human plasma (from UniProt P17931 1-250) (natural protein)
